# In patent US20150005237A1 (UNIVERSIT T INNSBRUCK, published 2015):
# Tests used:
# [1] = target: T1, PKA catalytic subunit (mouse, type α, PKAc) fused to Venus YFP PCA fragment F[2] (mouse, UniProt P05132 1-351); assay: Venus YFP protein-fragment complementation assay in COS7 cells
# [2] = target: T2, PKA regulatory subunit RIIβ (rat, type IIβ) fused to Venus YFP PCA fragment F[2] (rat, UniProt P12369 1-416); assay: as above
# T2 construct: Expressed in COS7 or HEK293 cells from pcDNA3.1; also called RIIβ-F[2]; RegIIβ; not shown: Venus variant of yellow fluorescent protein (YFP), C-terminal fragment F[2], amino acids 159-239
# [3] = target: T1, PKA catalytic subunit (mouse, type α, …); assay: Venus YFP protein-fragment complementation assay in cells
# T2 sequence (P12369 other isoform, or with tags, fused parts or gaps): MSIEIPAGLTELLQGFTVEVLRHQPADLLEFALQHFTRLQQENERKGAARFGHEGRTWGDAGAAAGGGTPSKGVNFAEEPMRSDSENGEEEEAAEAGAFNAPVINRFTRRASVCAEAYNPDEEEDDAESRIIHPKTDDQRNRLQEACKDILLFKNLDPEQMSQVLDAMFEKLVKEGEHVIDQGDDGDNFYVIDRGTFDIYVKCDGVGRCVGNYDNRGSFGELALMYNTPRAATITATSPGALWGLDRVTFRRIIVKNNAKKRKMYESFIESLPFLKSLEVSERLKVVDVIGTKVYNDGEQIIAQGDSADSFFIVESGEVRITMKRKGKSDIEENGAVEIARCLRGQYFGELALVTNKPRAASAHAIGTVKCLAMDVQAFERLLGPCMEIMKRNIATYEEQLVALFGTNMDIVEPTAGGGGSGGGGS
binding result [1],binding result [2],binding result [3],Binder
no binding,binds,,"Gαi2 fused to Venus YFP PCA fragment F[1] (other, UniProt P08752 1-355, looked up, Prey fused to F[1]; also called Gαi isoform 2 prey; not shown: Venus variant of yellow fluorescent protein (YFP), N-terminal fragment F[1], amino acids 1-158) MGCTVSAEDKAAAERSKMIDKNLREDGEKAAREVKLLLLGAGESGKSTIVKQMKIIHEDGYSEEECRQYRAVVYSNTIQSIMAIVKAMGNLQIDFADPQRADDARQLFALSCAAEEQGMLPEDLSGVIRRLWADHGVQACFGRSREYQLNDSAAYYLNDLERIAQSDYIPTQQDVLRTRVKTTGIVETHFTFKDLHFKMFDVGGQRSERKKWIHCFEGVTAIIFCVALSAYDLVLAEDEEMNRMHESMKLFDSICNNKWFTDTSIILFLNKKDLFEEKITQSSLTICFPEYTGANKYDEAASYIQSKFEDLNKRKDTKEIYTHFTCATDTKNVQFVFDAVTDVIIKNNLKDCGLF"
,,binds,"Phosphoinositide-dependent kinase 1 (PDK1) fused to Venus YFP PCA fragment F[1] (enzyme, UniProt Q9Z2A0 1-559, looked up, Prey fused to F[1]; not shown: Venus variant of yellow fluorescent protein (YFP), N-terminal fragment F[1], amino acids 1-158) MARTTSQLYDAVPIQSSVVLCSCPSPSMVRSQTEPGSSPGIPSGVSRQGSTMDGTTAEARPSTNPLQQHPAQLPPQPRKKRPEDFKFGKILGEGSFSTVVLARELATSREYAIKILEKRHIIKENKVPYVTRERDVMSRLDHPFFVKLYFTFQDDEKLYFGLSYAKNGELLKYIRKIGSFDETCTRFYTAEIVSALEYLHGKGIIHRDLKPENILLNEDMHIQITDFGTAKVLSPESKQARANSFVGTAQYVSPELLTEKSACKSSDLWALGCIIYQLVAGLPPFRAGNEYLIFQKIIKLEYHFPEKFFPKARDLVEKLLVLDATKRLGCEEMEGYGPLKAHPFFETITWENLHQQTPPKLTAYLPAMSEDDEDCYGNYDNLLSQFGFMQVSSSSSSHSLSTVETSLPQRSGSNIEQYIHDLDTNSFELDLQFSEDEKRLLLEKQAGGNPWHQFVENNLILKMGPVDKRKGLFARRRQLLLTEGPHLYYVDPVNKVLKGEIPWSQELRPEAKNFKTFFVHTPNRTYYLMDPSGNAHKWCRKIQEVWRQQYQSNPDAAVQ"
no binding,binds,,"Gαi3 fused to Venus YFP PCA fragment F[1] (other, UniProt Q9DC51 1-354, looked up, Prey fused to F[1]; also called Gαi isoform 3 prey; not shown: Venus variant of yellow fluorescent protein (YFP), N-terminal fragment F[1], amino acids 1-158) MGCTLSAEDKAAVERSKMIDRNLREDGEKAAKEVKLLLLGAGESGKSTIVKQMKIIHEDGYSEDECKQYKVVVYSNTIQSIIAIIRAMGRLKIDFGESARADDARQLFVLAGSAEEGVMTSELAGVIKRLWRDGGVQACFSRSREYQLNDSASYYLNDLDRISQTNYIPTQQDVLRTRVKTTGIVETHFTFKELYFKMFDVGGQRSERKKWIHCFEGVTAIIFCVALSDYDLVLAEDEEMNRMHESMKLFDSICNNKWFTDTSIILFLNKKDLFEEKIKRSPLTICYPEYTGSNTYEEAAAYIQCQFEDLNRRKDTKEVYTHFTCATDTKNVQFVFDAVTDVIIKNNLKECGLY"
